Reference: patent publication US20090246756A1, “Thermostable polypeptide having polynucleotide kinase activity and/or phosphatase activity” (Prokaria Ehe, priority 2004, published 2009)
Where “and” joins values, the source holds several entries; their conditions need not be identical. Equal values may be shown once. Entries after “also recorded” stand apart in the source; their conditions may differ.

Legend:
r(A20) = assay: 5′ kinase reaction, RNA oligomer titration and labelling; type: biochemical
Protocol: (§1) The standard PNK assay developed by Richardsson (Richardson, C. C. (1965) Proc Natl Acad Sci USA 54, 158-165) that measures conversion of γ-32P-ATP, was used for characterization of the RM378 PNK with some minor modifications. Standard reaction conditions were: 50 mM MOPS buffer pH 8.5, 1 mM DTT, 10 mM MgCl2, 25 μg/ml BSA, 1 mM spermidine and 5% PEG6000, 100 μM ATP (mixture of normal and γ-32P-ATP) and 0.5 mg/ml partial mircococcal nuclease digested calf thymus DNA or 50-100 μM DNA/RNA oligomers, and 0.0001-0.001 mg/ml PNK enzyme, incubated at 70° C. for 15-30 minutes.
(§2) Titration curves for ATP, r(A20) and single stranded d(A20) oligomers were done to calculate Km values and find the maximum velocity of the 5′ kinase reaction. The results are shown for ATP in FIG. 4B and for, r(A20) and d(A20) in FIGS. 4C.
(§3) To investigate the completeness of the 5′ kinase reaction, both r(A20) and d(A20) oligos at 20 μM concentration were labeled in a 10 μM ^32P labeled ATP mixture under optimal conditions. […] The RM378 PNK is therefore an excellent enzyme for nucleic acid labeling at elevated temperatures.

d(A20) = assay: 5′ kinase reaction, ssDNA oligomer titration and labelling; type: biochemical
Protocol: as §1, §2, §3

[1] = 3′ phosphohydrolase assay (phosphate release, Biomol Green) on CAMP; settings: for 3′ phosphohydrolase activity on CAMP, enzyme comparison: 20 units enzyme, pH 6, 2 hours, 37° C. (T4) / 70° C. (RM378)
Protocol: (§4) For example, the following assay can be used: in a potassium acetate buffer, pH 6.0, with 5 mM MnCl2, 1 mM DTT, and 10 mM KCl2, the enzyme is incubated (at 0.05 mg enzyme/ml) with substrate, such as 0.1-5 mM 3′-thymidine mono-phosphate (3′-TMP) or cyclic 2′-3′cyclic adenosine mono-phosphate (cAMP), for 30-60 minutes at suitable temperature, for example at 70-75° C. for RM378 kinase. The reaction is then quenched by adding 90 μL of Biomol Green reagent (Biomol Research Laboratories, Plymouth Meeting, Pa.) to 10 μL reaction. The release of phosphate is then measured at A 620 nm in a spectrophotometer and compared to a phosphate standard curve.
(§5) After determination of pH, cation and apparent temperature optimum, the standard phosphohydrolase assay was: Potassium acetate buffer pH 6.0, 5 mM MnCl2, 1 mM DTT, 10 mM KCl2, 0.1-5 mM CAMP and 0.05 mg/ml PNK. Reaction time was 30-60 minutes at 70-75° C. The reaction was quenched by adding 90 μL of Biomol Green reagent (Biomol Research Laboratories, Plymouth Meeting, Pa.) to 10 μL reaction. The release of phosphate was measured at A 620 nm in a Sunrise Absorbance Reader (Tecan Group Ltd, Maennedorf, Switzerland) and compare to a phosphate standard curve.
(§6) The characterization of the phosphohydrolase activity was done using two substrates: 3′-thymidine mono-phosphate (3′TMP) and cyclic 2′-3′cyclic adenosine mono-phosphate (cAMP). Determination of pH optimum was done with MOPS and potassium acetate buffers using 0.1 mM CAMP and 0.05 mg/ml PNK, apparent T optimum was also done under the standard condition by assaying at different temperatures. Protein concentration curve was done with CAMP at pH 6 in K-acetate buffer and different amount of PNK. Substrate concentration curves were done for CAMP and 3′TMP, under the standard conditions using different amount of substrates.
(§7) Comparison was done between RM378 and T4 PNK using CAMP, 3′TMP and d(A15)—PO4^− oligomer as substrates, all in 0.1 mM concentration with 20 units of the enzymes in 20 μL reaction volumes using potassium acetate buffer pH 6 with both Mg^2+ and Mn^2+ as the divalent cation. The reactions were carried out for 2 hours at 37° C. and 70° C. for T4 and RM378 PNK, respectively.

[2] = 5′ kinase reaction, ATP titration; type: biochemical; settings: Lineweaver-Burk plot
Protocol: as §1, §2

[3] = system: partial mircococcal nuclease digested calf thymus DNA or DNA/RNA oligomers; assay: 5′ kinase standard PNK assay (conversion of γ-32P-ATP); type: biochemical; settings: standard assay at different temperatures for one hour
[4] = system: partial mircococcal nuclease digested calf thymus DNA or DNA/RNA oligomers; assay: as above; type: biochemical; settings: for increase in 5′ kinase activity by PEG6000: 5-10% PEG6000; for 5′ kinase activity with Mn^2+ compared to Mg^2+: divalent cation essential
Protocol: The 5′-kinase activity may be determined by an appropriate assay such as an assay developed for T4 PNK that measures conversion of ATP labelled with radioactive gamma-phosphate group (Richardson, C. C. (1965) Proc Natl Acad Sci U.S.A. 54, 158-165). The standard assay may be modified according to the requirement of a specific PNK. For example, for RM378 PNK the typical reaction conditions are 50 mM MOPS buffer pH 8.5, 1 mM DTT, 10 mM MgCl2, 25 μg/ml BSA, 1 mM spermidine and 5% PEG6000, 100 μM ATP (mixture of normal and γ-32P-ATP) and 0.5 mg/ml partial micrococcal nuclease digested calf thymus DNA or 50-100 μM DNA/RNA oligomers, and 0.0001-0.001 mg/ml PNK enzyme. The reaction mixture is then incubated at 70° C. for 15-30 minutes.
as §1

[5] = 3′ phosphohydrolase assay (phosphate release, Biomol Green) on 3′TMP; type: biochemical
Protocol: as §4, §5, §6
Comparison was done between RM378 and T4 PNK using CAMP, 3′TMP and d(A15)—PO4^− oligomer as substrates, all in 0.1 mM concentration with 20 units of the enzymes in 20 μL reaction volumes using potassium acetate buffer pH 6 with both Mg^2+ and Mn^2+ as the divalent cation. […]

d(A15)—PO4^− oligomer = assay: 3′ phosphohydrolase comparison of RM378 and T4 PNK on 3′ phosphorylated oligomer; type: biochemical; settings: 0.1 mM substrate, 20 units enzyme, pH 6, 2 hours, 37° C. (T4) / 70° C. (RM378)
Protocol: as §7

ssDNA oligomer = assay: Effect of ADP on 5′ kinase, dephosphorylation and phosphate exchange reactions; type: biochemical; settings: for effect of ADP on 5′ kinase activity: 5′ hydroxylated ssDNA, increasing ADP; for phosphate exchange reaction on 5′ phosphorylated oligomer: independent of ADP concentration, 0 to 1 mM ADP; for effect of ADP on dephosphorylation of 5′ phosphorylated ssDNA: only ADP and 32P-labeled oligomer, no ATP
Protocol: Effect of ADP was tested on three kind of reactions i) exchange reaction ii) 5′ kinase reaction and iii) dephosphosphorylation. This was done, by titrating different amounts of ADP to reaction mixtures containing i) 10 μM phosphorylated ssDNA oligo 10 μM γ-^32P-ATP, ii) 10 μM 5′ hydroxylated ssDNA oligomer with 10 μM γ-^32P-ATP, and iii) with 5′ ^32P-labeled ssDNA oligomer without ATP.
The effect of addition of ADP to 5′ kinase activity, dephosphorylation, and phosphate exchange was studied in controlled assay with 10:10 μM ATP and oligomer and by titrating the ADP concentration. […] On the other hand, when labelling an already phosphorylated oligomer, the exchange reaction was overall about 5-8% independent of the ADP concentration, from 0 to 1 mM ADP.

B1: RM378 PNK: novel thermostable polynucleotide kinase (5′-kinase and 3′-phosphatase activity) from the thermophilic bacteriophage RM378, SEQ ID NO: 2 (protein)
chain: MPNFITNIRNSRFKEVLTEMYHCHHESEYHLEGNVLNHTLMVLQVVDKITADHREQTNLSLTALLHDSGKPYTRVVERGRVMFPGHEGVSTYIAPLLLCEVLRDSLITPKDAIQILYGVNYHMLHWKNPNLFMRLFTEMVNYTCLYNFLKKFNQCDLKGRVSTKPQKQEFPVIHYFENTPIGTVERHVYFMIGVPGSGKSTFLQKVGEGAIVSRDEIMMEYAAEIGITGDYNTVFREIHNNPMHKTKVNNRYMNAFRKAVEENEKVFVDATNMSYKSRRRFYNALRRDIAETVGYHYIVMLPDYFTCIERAENREGKSISREVVTDIARSLLLPCREHPNSIDTTIYMSDGHDEHVLRVAW
modifications: Bacteriophage RM378; HDmotif (66)..(67) HD motif is characteristic of HD phophohydrolase family of enzymes
r(A20); 20 μM r(A20), 10 μM 32P-labeled ATP, 70° C., 30 min
  completeness of 5′ kinase labelling reaction, RNA: the ATP was depleted; also recorded: completely depleted the ATP when using 5 U per reaction
r(A20); Example 2
  Vmax of 5′ kinase reaction on r(A20): 160 μmolmg^−1h^−1
r(A20); FIG. 6C legend
  Vmax of 5′ kinase activity on RNA: 220 µmol/h/mg
r(A20); r(A20)
  Km: ~1.5 µM and 1.3 µM
d(A20); 20 μM d(A20), 10 μM 32P-labeled ATP, 70° C., 30 min
  completeness of 5′ kinase labelling reaction, DNA: the ATP was depleted; also recorded: completely depleted the ATP when using 5 U per reaction
d(A20); Example 2
  Vmax of 5′ kinase reaction on d(A20): 220 μmolmg^−1h^−1
d(A20); FIG. 6C legend
  Vmax of 5′ kinase activity on DNA: 160 µmol/h/mg
d(A20); d(A20) versus r(A20)
  5′ kinase activity on ssDNA compared to RNA: somewhat better activity on ssDNA when compared to RNA
d(A20); single stranded d(A20), read-out: Km for DNA, 5′ kinase reaction
  Km: ~1.3 µM and 1.5 µM
[1]
  pH range with >40% 3′ phosphohydrolase activity: 5.5-7.0 pH
  temperature range with good (>50%) 3′ phosphohydrolase activity: 65-80 °C
[1]; 0.1 mM substrate
  3′ phosphohydrolase activity on CAMP, enzyme comparison: much better activity on the CAMP versus 3′-TMP
[1]; 0.1 mM substrate, listed as RM378
  3′ phosphohydrolase activity on CAMP, enzyme comparison: high activity on CAMP
[1]; CAMP as substrate, 1 mM cation
  higher 3′ phosphohydrolase activity with Mn^2+ than Mg^2+: 5-10 fold
[1]; Mg2+ as cation, 0.1 mM substrate
  3′ phosphohydrolase activity in presence of Mg2+, enzyme comparison: little activity in presence of Mg2+
[1]; measured for one hour
  apparent temperature optimum of 3′ phosphohydrolase activity: 75 °C
[1]; potassium acetate pH 4-6 and MOPS pH 6-9, 0.1 mM CAMP, 0.05 mg/ml PNK
  pH optimum of 3′ phosphohydrolase activity: ~6 pH
[1]; read-out: Km for CAMP, 3′ phosphohydrolase reaction, standard conditions, Mn2+
  Km: 700 µM
[1]; standard conditions, Mn2+
  Vmax of 3′ phosphohydrolase reaction on CAMP: 13.5 μmolmg^−1h^−1
[1]; substrate titration, standard assay conditions with Mn2+
  3′ phosphohydrolase activity on CAMP relative to 3′TMP: much more phosphohydrolase activity on CAMP compared to 3′TMP; also recorded: several-fold higher on CAMP than 3′TMP
[2]
  Km: 20 µM
[3]
  apparent temperature optimum of 5′ kinase activity: 65-70 °C
[4]
  effect of spermidine on 5′ kinase activity: limited
  increase in 5′ kinase activity by PEG6000: multi-fold
  5′ kinase activity with Mn^2+ compared to Mg^2+: both Mg2+ and Mn2+ work equally well
[4]; listed as PNK
  increase in 5′ kinase activity by PEG6000: 3-4 fold and 4 fold
  5′ kinase activity with Mn^2+ compared to Mg^2+: Activity was similar for Mn^2+ and Mg^2+
[4]; Mg^2+
  Mg^2+ concentration at which maximum 5′ kinase activity was reached: 100 µM
[4]; Mn^2+
  Mn^2+ concentration at which maximum 5′ kinase activity was reached: 10 µM
[4]; Mn^2+ over 100 μM
  effect of Mn^2+ concentration over 100 μM on 5′ kinase reaction: severely inhibited the reaction
[4]; PEG6000 above 5-10%
  effect of PEG6000 at higher concentrations on 5′ kinase reaction: inhibited the 5′ kinase reaction at higher concentrations
[4]; concentrations higher than 10 mM
  effect of NaCl and KCl on PNK activity: steady decrease in activity
[5]; 0.1 mM substrate, 20 units enzyme, pH 6, 2 hours, 37° C. (T4) / 70° C. (RM378)
  3′ phosphohydrolase activity on 3′TMP, enzyme comparison: some activity on 3′TMP
[5]; standard conditions, Mn2+
  Vmax of 3′ phosphohydrolase reaction on 3′TMP: 1.5 μmolmg^−1h^−1
[5]; standard conditions, Mn2+, read-out: Km for 3TMP, 3′ phosphohydrolase reaction
  Km: 60 µM
d(A15)—PO4^− oligomer
  3′ phosphohydrolase activity on d(A15)-3′PO4− oligomer, enzyme comparison: no detectable activity on the oligomer
d(A15)—PO4^− oligomer; listed as RM378
  3′ phosphohydrolase activity on d(A15)-3′PO4− oligomer, enzyme comparison: no activity on the oligomer
ssDNA oligomer
  effect of ADP on 5′ kinase activity: inhibited as the concentration of ADP increased
  phosphate exchange reaction on 5′ phosphorylated oligomer: 3-8%
  effect of ADP on dephosphorylation of 5′ phosphorylated ssDNA: The dephosphorylation increased as the ADP concentration increased
ssDNA oligomer; listed as PNK
  effect of ADP on 5′ kinase activity: decreased with increasing ADP concentration
  phosphate exchange reaction on 5′ phosphorylated oligomer: 5-8%
  effect of ADP on dephosphorylation of 5′ phosphorylated ssDNA: the level of dephosphorylation increased as the ADP concentration was increased
ssDNA oligomer; 10:10 μM ATP and oligomer
  ADP concentration giving complete inhibition of 5′ kinase activity: 50 µM
